In assay [1] the test system is WT mice. Kind of assay: Chronic Ang II infusion for 14 days with daily TAT.protein injection, WT mice. Particulars: for FS / LVEDD / LVEF / LVESD / PWD: WT, echocardiography at 14 days. It is filed as in vivo. From the text: FIG. 5 is a series of graphs, blots and cell stainings showing CK2-alpha-prime is important for Ang II action in vivo. […] Transduction of recombinant active CK2-alpha-prime evokes cardiac hypertrophy in the absence of Ang II. (A) Heart-weight corrected for body-weight (left panel) and Masson-stain of myocardial cross sections (right panel). Mean±s.e.m., n=6-8. #P<0.01 vs sham saline. *P<0.01 vs sham saline. Scale bar, 2 mm. (B) Cell size analysis of adult cardiac myocytes isolated from 8-weeks-old mice. One hundred cells from three different mice were analyzed per group. Mean±s.e.m. #P<0.01 vs sham saline. *P<0.01 vs sham saline. **P<0.01 vs Ang II. (c) Determination of ANF/BNP mRNA levels by qRT-PCR. Mean±s.e.m., n=6-8. *P<0.05 vs sham saline. **P<0.05 vs Ang II. #P<0.05 vs sham saline. (D) Visualization of ectopic TAT-conjugated p27deltaPi by indirect immunofluorescence microscopy employing anti-His tag antibodies. Scale bar, 200 μm. (E) Left ventricular extracts (2-3 mg) were subjected to anti-CK2-alpha-prime immunocomplex kinase assays employing histone H1 substrate. Aliquots of kinase reactions were subjected to immunoblotting using antibodies as indicated on the left (top and middle panel). Levels of endogenously expressed or transduced proteins in total left ventricular heart tissue samples (60 μg) were analyzed by immunoblotting (bottom panel). Experiments to (E) were done twice with similar results.
To define whether CK2-alpha-prime -directed p27 turnover plays a role in vivo, the inventors chronically infused Ang II^72 and intraperitoneally injected recombinant TAT-conjugated CK2-alpha-prime and p27 variants in WT and p27^−/− mice (FIG. 9). […] These mice had normal LVEDD and LVESD when compared to Ang II-infused littermates (Table 3). […] CK2-alpha-prime activity and p27 destabilization were similar to their non-transduced Ang II-treated siblings (FIG. 5E).
(§1) Spontaneously beating cardiomyocytes from heart ventricles of neonatal rats were cultured and subjected to treatment with angiotensin II (Ang II). DMAT (2-dimethylamino-4,5,6,7-tetrabromo-1H-benzimidazol), DMSO, lactacystin and LLM were obtained from Calbiochem. Ang II was purchased from Sigma. Animal usage was in accordance with approved institutional animal care guidelines. Age-matched male WI C57BL/6 and p27^−/− mice were used in this study. For results shown in FIGS. 1 to 9: Ang II was chronically infused subcutaneously by osmotic pumps (model 2000, Alzet) at a dose of 1.4 μg/kg per minute for 14 days. TAT.proteins (10 mg/kg) were injected intraperitoneally once daily for 14 days. For results shown in FIGS. 10 to 12: Ang II was chronically infused subcutaneously by osmotic pumps (model 2000, Alzet) at a dose of 0.7 μg/kg per minute for 16 days. TAT.proteins (20 mg/kg) were injected intraperitoneally once daily for 8 days starting at day 8. Thoracic aortic banding (TAB) and pressure gradient measurements were performed as described^39.

The subject of assay [2] is p27 KO mice. Kind of assay: Chronic Ang II infusion for 14 days with daily TAT.protein injection, p27 KO mice. It is filed as in vivo. The following applies: for FS / LVEDD / LVEF / LVESD / PWD: p27 KO, echocardiography at 14 days. The procedure: (A) Heart-weight corrected for body-weight (left panel) and Masson-stain of myocardial cross sections (right panel). Mean±s.e.m., n=6-8. *P<0.01 vs sham saline. **P<0.01 vs Ang II. Scale bar, 2 mm. (B) Cell size analysis of adult cardiac myocytes isolated from 8-weeks-old mice. One hundred cells from three different mice were analyzed per group. Mean±s.e.m. *P<0.01 vs sham saline. **P<0.01 vs Ang II. (C) Determination of ANF/BNP mRNA levels by qRT-PCR. Mean±s.e.m., n=6-8. *P<0.01 vs sham saline. **P<0.01 vs Ang II. (D) CK2-alpha-prime-dependent kinase activity determined in whole left ventricular tissue samples. One typical result of two independent experiments is shown. (E, F) Ang II action induces apoptosis in p27^−/− mice. (E) Quantification of apoptotic cardiac myocytes (white arrowheads) by in situ TUNEL and GATA4 immunofluorescence histochemistry of left ventricular specimen. Mean±s.e.m., n=4. *P<0.01 vs sham saline. **P<0.05 vs sham saline. #P<0.01. (F) Determination of caspase 3 activity in total left ventricular heart tissue samples. Mean±s.e.m., n=4. *P<0.05 vs sham saline. #P<0.01. (G) Model for CK2-alpha-prime-dependent regulation of cardiac hypertrophy through phosphorylation of p27. Hypertrophic signals stimulate CK2-alpha-prime kinase that phosphorylates p27 at S83 and T187. Phosphorylation of p27 impairs its ability to bind to and inhibit […] activity. Subsequently, p27 is proteasomally degraded allowing hypertrophic growth to proceed.
Next, the inventors examined the effect of transduced proteins on cardiac hypertrophy in p27^−/− mice. Elimination of p27 gene function in these animals completely abrogated the ability of kd.CK2-alpha-prime to block cardiac hypertrophy (FIG. 6A-D). In contrast, hypertrophic responses to Ang II were abolished by p27deltaPi injections. Thus, reconstitution of p27 protein abundance in the myocardium of p27^−/− mice was accompanied by inhibition of Ang II action. Moreover, the inventors observed a marked increase in the number of TUNEL-positive cardiomyocyte nuclei in Ang II-infused p27^−/− mice (FIG. 6E,F) as compared to the WT controls. […] This was in direct contrast to the effect seen by ectopic kd.CK2-alpha-prime consistent with the inventors' previous work showing that CK2 is cardioprotective^73,74.
as §1

The mark [3] stands for this setting: Ang infusion 1.4 μg/kg per minute 14 days, TAT.protein 10 mg/kg i.p. once daily.
Setting [4] is: saline infusion, TAT.protein 10 mg/kg i.p. once daily 14 days.

Marks after values point to notes of the source that are not given here.

Experimental findings from patent US20110086089A1, “USE OF P27KIP1 FOR THE PREVENTION AND TREATMENT OF HEART FAILURE” (UNIVERSITY HEALTH NETWORK, priority 2008, published 2011) are described below.

B1: kd.CK2-α′: catalytically-inactive kinase-dead CK2-alpha-prime, point mutation K69M; TAT-conjugated protein in mice, lentivirally expressed in cardiomyocytes (protein)
chain: MPGPAAGSRARVYAEVNSLRSREYWDYEAHVPSWGNQDDYQLVRKLGRGKYSEVFEAINITNNERVVVMILKPVKKKKIKREVKILENLRGGTNIIKLIDTVKDPVSKTPALVFEYINNTDFKQLYQILTDFDIRFYMYELLKALDYCHSKGIMHRDVKPHNVMIDHQQKKLRLIDWGLAEFYHPAQEYNVRVASRYFKGPELLVDYQMYDYSLDMWSLGCMLASMIFRREPFFHGQDNYDQLVRIAKVLGTEELYGYLKKYHIDLDPHFNDILGQHSRKRWENFIHSENRHLVSPEALDLLDKLLRYDHQQRLTAKEAMEHPYFYPVVKEQSQPCADNAVLSSGLTAAR
modifications: left off: small tags and cut ends
notes: TAT-conjugated protein in mice, lentivirally expressed in cardiomyocytes
For the molecule B1, the “cardiac hypertrophy to Ang II (heart/body weight ratio, myocyte area, ANF/BNP mRNA)” value in assay [1] (Ang II-treated WT mice, TAT.proteins 10 mg/kg i.p. once daily 14 days) is “abrogate cardiac hypertrophy”. In addition, the “Ang II-induced CK2-alpha-prime activity (left ventricular immunocomplex kinase assay)” value in assay [1] (Ang II-treated WT mice, left ventricular extracts) is listed as “abolished”. Also, in assay [1] (setting [3]), the FS is 38 ± 2.6** %, the LVEDD is 3.8 ± 0.2** mm, the LVEF is 71 ± 2.3** % and the LVESD was 1.3 ± 0.1** mm. Besides, the PWD in assay [1] (setting [3]) is recorded as 0.7 ± 0.2** mm. In assay [1] (setting [4]), this molecule showed an LVEDD of 3.7 ± 0.2 mm, an LVEF of 71 ± 2.4%, an LVESD of 1.4 ± 0.2 mm and a PWD of 0.7 ± 0.1 mm. In assay [1] (saline infusion, TAT.protein 10 mg/kg i.p. once daily 14 days, 8-weeks of age), the FS was determined as 40 ± 1.5%. Besides, the “cardiac hypertrophy / hypertrophic responses to Ang II” value in assay [2] (Ang II-infused p27−/− mice, TAT.proteins 10 mg/kg i.p. once daily) is “fails to inhibit cardiac hypertrophy”. In addition, in assay [2] (setting [3]), the FS is recorded as 52 ± 1.9* %, the LVEDD is listed as 4.5 ± 0.1* mm, the LVEF is 83 ± 2.8* % and the LVESD was 2.1 ± 0.2* mm. For the same molecule, the PWD in assay [2] (setting [3]) is reported as 1.2 ± 0.1* mm. In assay [2] (setting [4]), the FS is reported as 39 ± 2.6%, the LVEDD came out at 3.8 ± 0.2 mm, the LVEF is reported as 69 ± 2.3% and the LVESD was 1.3 ± 0.1 mm. The PWD in assay [2] (setting [4]) was 0.7 ± 0.2 mm.
